Legend:
FGFR3-F384L = biological target: T1, FGFR3-F384L (Homo sapiens, UniProt P22607, F384L); assay: FGF-stimulated growth of B9 cells expressing FGFR3 mutant F384L; format: cell-based
T1 construct: expressed in transfected cells; host or cells: B9 cells
Experimental: Non-transformed rat chondrocyte cell line expressing PGFR3 in an inducible manner (RCJ-FGFR3) has been described previously (Rauchenberger R. et al. J. Biol. Chem. 2003; 278:38194-205). Cells were maintained in α-Minimum Essential Media supplemented with 15% fetal calf serum (FCS), 2 mM L-Glutamine, 100 U/ml penicillin, 100 μg/ml streptomycin, 600 μg/ml G418 (Gibco BRL, Ontario, Canada), 2 μg/ml Tetracyclin (Sigma, Ontario, Canada), and 50 μg/ml HygromycinB (Gibco BRL). FGFR3 expression was induced by removal of tetracyclin and serum starvation. […]
Cell viability was assessed by 3-(4,5-dimethylthiazol)-2,5-diphenyl tetrazolium (MTT) or (2,3-bis(2-methoxy-4-nitro-5-sulphophenyl)-5-[(phenylamino) carbonyl]-2H-tetrazolium hydroxide (XTT) dye absorbance where indicated. Cells were seeded in 96-well plates at a density of 20,000 (FDCP-1 cells), 5,000 (B9 cells) or 25,000 cells (MM cell lines) per well in culture medium. Cells were incubated in the absence or presence of one of the following cytokines: 10 ng/ml FGF9 and 5 μg/ml heparin, 1% murine IL-6, 50 ng/ml IGF-1 or 50 ng/ml human IL-6 where indicated and increasing concentrations of PRO-001, control antibody (purified human Fab) or 100 nM PD173074. […]

WT FGFR3 = biological target: T2, WT FGFR3 (Homo sapiens, UniProt P22607); assay: Flow cytometry binding of PRO-001 Fab to B9-FGFR3^WT cells, with or without FGF
T2 construct: expressed in transfected cells; host or cells: B9 cells
Description: FIG. 1A is a flow cytometry chart showing B9-FGFR WT (wild type) cells fluorescently labeled with PRO 001 followed by a PE-conjugated anti-human secondary antibody. The filled histogram indicates parental B9 cells (lacking FGFR3 expression); the dotted light line, B9-FGFR WT without aFGF; the solid dark line, B9-WT in the presence of aFGF. The Y axis represents counts indicating the amount of cells. The X axis represents fluorescence intensity.
Cells (5×10^5) were washed in cold phosphate-buffered saline (PBS) and then incubated for 30 minutes with one of the following: PRO-001 Fab or a human Fab control antibody, rabbit anti-FGFR3 (100) or rabbit preimmune serum in PBS. The cells were then stained with PE-conjugated goat antihuman F(ab′)2 secondary antibody or goat anti-rabbit IgG-PE for 30 minutes on ice. Flow cytometry was performed on a FACSCaliber flow cytometer (BD Biosciences, San Jose, Calif.) and analyzed using Cellquest software (Becton Dickinson). To assess the ability of FGF ligand to compete for binding, cells were incubated in the presence or absence of 30 ng/ml FGF and 5 μg/ml heparin for 30 minutes and then stained with PRO-001 Fab as describe above.
The human anti-FGFR3 Fab PRO-001 was isolated from the Hu-CAL®-Fab-1 human combinatorial library using a differential whole cell panning approach (Rauchenberger R, et al. J Biol. Chem. 2003; 278:38194-205). […]

ERK1/2 phosphorylation = assay: FGF-induced ERK phosphorylation in primary myeloma cells (flow cytometry); format: cell-based, human; conditions: 5 μg/ml, 2 h pre-incubation
Experimental: FIGS. 6 A-B are flow cytometry charts of human primary myeloma cells treated with anti-FGFR antibody PRO-001. A: Freshly isolated BMSCs were stained with PRO-001 (black line) or control antibody (grey line) and then stained with PE-conjugated anti-human secondary antibody. B: Primary myeloma cells were incubated in the absence (filled) or presence of FGF (light line) or pre-incubated with 5 μg/ml PRO-001 (dark line) for 2 h and then stimulated with FGF. ERK1/2 phosphorylation was assessed by flow cytometry analysis.
Determination of ERK1/2 phosphorylation by flow cytometry has been described previously (Chow S, et al., Cytometry 2001; 46:72-78). Cells were serum-starved overnight and then stimulated with 30 ng/ml of aFGF and 10 μg/ml heparin for 10 minutes at 37° C. The cells were immediately fixed by adding 10% formaldehyde directly into the culture medium to obtain a final concentration of 2%. Cells were incubated in fixative for 10 min at 37° C. then on ice for an additional 2 minutes. The cells were permeabilized by adding ice-cold methanol (to a final concentration of 90%) while vortexing and incubated on ice for 30 minutes. […] Flow cytometry was performed on a FACSCaliber® flow cytometer (BD Biosciences, San Jose, Calif.) and analyzed using Cellquest® software (Becton Dickinson). […]

T2 sequence (P22607 23-806): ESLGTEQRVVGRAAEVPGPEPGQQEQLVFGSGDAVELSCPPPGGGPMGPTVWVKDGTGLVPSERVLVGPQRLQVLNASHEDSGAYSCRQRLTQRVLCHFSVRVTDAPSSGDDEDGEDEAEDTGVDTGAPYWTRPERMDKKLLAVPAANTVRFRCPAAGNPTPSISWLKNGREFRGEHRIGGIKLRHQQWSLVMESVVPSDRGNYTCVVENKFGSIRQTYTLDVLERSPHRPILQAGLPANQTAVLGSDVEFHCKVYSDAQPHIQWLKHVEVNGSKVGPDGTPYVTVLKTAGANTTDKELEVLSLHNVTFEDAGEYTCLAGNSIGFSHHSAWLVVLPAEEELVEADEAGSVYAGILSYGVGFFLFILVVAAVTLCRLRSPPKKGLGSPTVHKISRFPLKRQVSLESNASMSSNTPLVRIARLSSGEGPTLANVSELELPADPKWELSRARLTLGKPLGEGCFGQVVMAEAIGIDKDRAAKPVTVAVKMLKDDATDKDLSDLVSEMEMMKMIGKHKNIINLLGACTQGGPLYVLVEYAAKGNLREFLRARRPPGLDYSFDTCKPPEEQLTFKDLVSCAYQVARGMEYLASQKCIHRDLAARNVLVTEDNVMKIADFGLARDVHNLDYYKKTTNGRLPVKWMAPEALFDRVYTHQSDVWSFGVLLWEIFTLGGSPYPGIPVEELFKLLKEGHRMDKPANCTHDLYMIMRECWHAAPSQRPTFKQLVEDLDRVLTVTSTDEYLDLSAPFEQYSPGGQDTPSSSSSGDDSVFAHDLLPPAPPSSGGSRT
T1 sequence (P22607 23-806 F384L): as the sequence (P22607 23-806) above, with F362L counted along it

B1: PRO-001: human anti-FGFR3 Fab from HuCAL library; VH-CDR3 SEQ ID NO:1, VL-CDR3 SEQ ID NO:10; VH SEQ ID NO:19, VL SEQ ID NO:28 (antibody, V domains shown)
VH: QVQLQQSGPGLVKPSQTLSLTCAISGDSVSSNSAAWNWIRQSPGRGLEWLGRTYYRSKWYNDYAVSVKSRITINPDTSKNQFSLQLNSVTPEDTAVYYCARSYYPDFDYWGQGTLVTVSS
VL: DIELTQPPSVSVAPGQTARISCSGDALGDKYASWYQQKPGQAPVLVIYDDSDRPSGIPERFSGSNSGNTATLTISGTQAEDEADYYCQSYDGPDLWVFGGGTKLTVLGQ
In the case of B1, the “IC50, FGF-stimulated growth of B9 cells expressing FGFR3 mutant F384L” value (FGFR3-F384L) is reported as “approximately 3 μg/ml”, the “Binding to B9-FGFR3^WT cells on addition of FGF” value (WT FGFR3; 30 ng/ml FGF and 5 μg/ml heparin) is reported as “can be reduced by addition of FGF” and the “Binding to WT FGFR3 (FACS)” value (WT FGFR3; PRO-001 Fab, B9-FGFR3^WT cells) is reported as “binds to WT FGFR3”. For the same molecule, the “FGF-induced ERK phosphorylation in primary myeloma cells” value (ERK1/2 phosphorylation) was “blocked FGF-induced ERK phosphorylation”.
